Reference: publication PMC8460447 (Nature chemical biology, 2021)

Target: neddylated CUL5 (human, UniProt Q93034 1-780, Lys724 isopeptide-linked to NEDD8)
Test: cryo-EM structure

Chain of neddylated CUL5 (Q93034 whole entry): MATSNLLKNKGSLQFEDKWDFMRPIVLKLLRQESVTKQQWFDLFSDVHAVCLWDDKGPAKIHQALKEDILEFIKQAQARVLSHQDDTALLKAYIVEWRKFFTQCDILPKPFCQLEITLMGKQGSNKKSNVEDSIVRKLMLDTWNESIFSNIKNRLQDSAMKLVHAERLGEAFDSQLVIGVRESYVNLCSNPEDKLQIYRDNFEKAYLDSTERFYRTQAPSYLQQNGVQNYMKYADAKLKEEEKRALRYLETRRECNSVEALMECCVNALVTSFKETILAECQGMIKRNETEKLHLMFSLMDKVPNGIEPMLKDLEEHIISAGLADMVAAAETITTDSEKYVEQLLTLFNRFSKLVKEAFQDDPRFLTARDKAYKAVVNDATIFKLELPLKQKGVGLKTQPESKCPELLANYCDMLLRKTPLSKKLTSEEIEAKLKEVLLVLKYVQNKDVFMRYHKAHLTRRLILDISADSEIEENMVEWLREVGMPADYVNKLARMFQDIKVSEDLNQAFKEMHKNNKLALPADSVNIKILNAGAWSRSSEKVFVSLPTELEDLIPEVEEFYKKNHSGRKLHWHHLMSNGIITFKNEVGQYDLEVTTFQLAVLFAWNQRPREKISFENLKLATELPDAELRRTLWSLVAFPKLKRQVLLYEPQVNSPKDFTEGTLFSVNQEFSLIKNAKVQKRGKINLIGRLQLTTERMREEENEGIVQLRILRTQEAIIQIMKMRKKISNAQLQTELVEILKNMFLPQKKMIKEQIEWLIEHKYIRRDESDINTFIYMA

| binding result | Binder |
| --- | --- |
| binds | RBX2 (natural protein) EDGEETCALASHSGSSGSKSGGDKMFSLKKWNAVAMWSWDVECDTCAICRVQVMDACLRCQAENKQEDCVVVWGECNHSFHNCCMSLWVKQNNRCPLCQQDWVVQRIGK |
| binds | ARIH2* (full-length ARIH2 with L381A, E382A and E455A residue substitutions) (enzyme) MSVDMNSQGSDSNEEDYDPNCEEEEEEEEDDPGDIEDYYVGVASDVEQQGADAFDPEEYQFTCLTYKESEGALNEHMTSLASVLKVSHSVAKLILVNFHWQVSEILDRYKSNSAQLLVEARVQPNPSKHVPTSHPPHHCAVCMQFVRKENLLSLACQHQFCRSCWEQHCSVLVKDGVGVGVSCMAQDCPLRTPEDFVFPLLPNEELREKYRRYLFRDYVESHYQLQLCPGADCPMVIRVQEPRARRVQCNRCNEVFCFKCRQMYHAPTDCATIRKWLTKCADDSETANYISAHTKDCPKCNICIEKNGGCNHMQCSKCKHDFCWMCLGDWKTHGSEYYECSRYKENPDIVNQSQQAQAREALKKYLFYFERWENHNKSLQAAAQTYQRIHEKIQERVMNNLGTWIDWQYLQNAAKLLAKCRYTLQYTYPYAYYMESGPRKKLFEYQQAQLEAEIANLSWKVERADSYDRGDLENQMHIAEQRRRTLLKDFHDT |
